Source: article PMC4939079 (Nature structural & molecular biology, 2016)

Molecular target: the molecule itself
Assay: affinity purification with mass spectrometry

B1: Bap1-GFP (natural protein)
chain: MNKGWLELESDPGLFTLLVEDFGVKGVQVEEIYDLQSKCQGPVYGFIFLFKWIEERRSRRKVSTLVDDTSVIDDDIVNNMFFAHQLIPNSCATHALLSVLLNCSNVDLGPTLSRMKDFTKGFSPESKGYAIGNAPELAKAHNSHARPEPRHLPEKQNGLSAVRTMEAFHFVSYVPITGRLFELDGLKVYPIDHGPWGEDEEWTDKARRVIMERIGLATAGEPYHDIRFNLMAVVPDRRIKYETRLHVLKVNRQTVLEALQQLIRVTQPELIQTHKSQESQLPEESKPASSKSPLGLEAGRTPVASECTQTDGAEEVAGSCPQTTTHSPPSKCKLVVKPPGSSLNGVPPNPAPIVQRLPAFLDNHNYAKSPMQEEEDLAAGVGRSRVPVRAPQQYSEDEDDYEDEDEDVQNTNPAIRYKRKGTGKPGSLSNSSDGQLSVLQPNTINVLTEKLQESQKDLSVPLSIKTSSGAGSPAVAVPTHSQPSPTPSNESTDTASEIGSAFNSPLRSPIRSANPTRPSSPVTSHISKVLFGEDDSLLRVDCIRYNRAVRDLGPVISTGLLHLAEDGVLSPLALTEGGKGSSPSTRSSQGSQGSSGLEEKEVVEVTESRDKPGLNRSSEPLSGEKYSPKELLALLKCVEAEIANYEACLKEEVEKRKKFKIDDQRRTHNYDEFICTFISMLAQEGMLANLVEQNISVRRRQGVSIGRLHKQRKPDRRKRSRPYKAKRQ
stoichiometry N: ~2
